Experimental data published in article PMC6422423 (2019).
Where no end group is shown, it is not given here.

Biological target: gastrin-releasing peptide receptor (UniProt P30550 1-384)
Experiment: competition with 125I-GRP

Chain of gastrin-releasing peptide receptor (P30550 whole entry): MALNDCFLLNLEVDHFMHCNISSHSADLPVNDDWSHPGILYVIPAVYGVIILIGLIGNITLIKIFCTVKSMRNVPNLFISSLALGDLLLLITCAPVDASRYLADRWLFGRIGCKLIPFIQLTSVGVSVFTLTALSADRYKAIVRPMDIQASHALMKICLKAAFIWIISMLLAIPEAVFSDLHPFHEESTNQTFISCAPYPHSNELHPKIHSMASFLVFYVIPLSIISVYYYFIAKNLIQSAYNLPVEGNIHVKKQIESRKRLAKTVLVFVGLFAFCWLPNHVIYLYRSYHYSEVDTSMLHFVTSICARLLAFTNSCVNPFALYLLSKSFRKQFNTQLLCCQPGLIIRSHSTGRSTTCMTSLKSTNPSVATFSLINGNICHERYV

| IC50 [nM] | Binder |
| --- | --- |
| 0.2 | APLQPGGSPALTKIYPRGSHWAVGHLM (ends and bridges not checked) [gastrin-releasing peptide, unlabeled ligand peptide of the radioligand binding assays] |
| 151 | YKIKVNPRGNLWATGHFM (ends and bridges not checked) [neuromedin B, unlabeled ligand peptide of the radioligand binding assays] |
